Measurements reported in the DeepSol protein solubility set.

test: soluble on expression in E. coli; label from the status in PepcDB or PDB records

Row | Sequence | soluble on expression in E. coli
1 | MREMTADPYLGKYITCVSARSTDKEILKKAQDGGIATALMVYALEEGIIDGTIVAGEGDRPWEPRPIVAMSREDILKARGTKYSISPQIAWLKEATRSFGLDKVGVTGVCCQMQAVRKAQLYPINMRDVPGKVALTVGLFCMENFPYKSLQTIVEDHAAQSLGSVKKMEITKGKFWVHTERGNVSTVPLKATHKYEQPGCHVCLDYVSSLADISTGSVGSPDGWSTVFIRTKKGNEVWSKAVAAGMFETKPIEDVKPGLELLTKLAKEKIDKNRKTLEERRNFGVNKALRDPYAAAALEHHHHHH | not soluble
2 | DLFVVEKPPSLPVHTCGQYAIHTVLGQLRVNEGRTGLRVLHRLDRATSGVLLFAKNYETDLEFKTTLKQGEWSKEYICKVDGVFPDEEQVCEQPIGPLVISMGIQCVRPDGKDAKSRFRKLWSDGTQSVVQVHIETGRTHQIRVHSQF | not soluble
3 | MSDLLDTVRGLAKKTDSKILMVVLDGVGGLPLTVNGDTELATARTPNLDALAQESQLGQLELVGAGITPGSGPGHLSLFGYDPLKYVVGRGALSAVGIGVKLNRGDVAVRGNFATLGAGRLILDRRAGRPSDEKNAEIVAKLRAAIPEIDGVAVEVYTESEHRFVVVFRAPEGQPLGANISDVDPQVTGVEPKTAIANDPSSEVTAGLINTFVARAEVALADEPQVNGVLFRGYSDVPHFPSFEDAYQLKAACIASYPMYKGLASLVGMDVLPVEGHEDALEGKVKALRENWAKYDFFYFHIKKTDSTGEDGDFAEKVHKIELFDELLPQLLELQPDVIAVVGDHSTPSKLKSHSWHPVPLLIRSNYGRRDPAQRYTEEEAARGTLGLRHGPDLMPLLMANALKLNKYGALEHHHHHH | soluble
4 | MSLSRSEEMHRLTENVYKTIMEQFNPSLRNFIAMGKNYEKALAGVTYAAKGYFDALVKMGELASESQGSKELGDVLFQMAEVHRQIQNQLEEMLKSFHNELLTQLEQKVELDSRYLSAALKKYQTEQRSKGDALDKCQAELKKLRKKSQGSKNPQKYSDKELQYIDAISNKQGELENYVSDGYKTALTEERRRFCFLVEKQCAVAKNSAAYHSKGKELLAQKLPLWQQACADPSKIPERAVQLMQQVASN | soluble
5 | LLGDEAIALGAIHAGISGVYAYPGTPSTEITEFIQNNRLAKERKLHSTWCTNEKTAMEAALGMSYAGKRALVCMKHVGMNVAADAFVNSAITGVNGGLVVLAADDPSMHSSQNEQDSRFYGKFAMIPMLEPSSQQEAYDMMDYAYTLSEKLKLPVLMRVVTRLAHSRAGVEVADIREENQLNPDHERAHWVLLPGNARKQYLDLVKKQEKLEEASSKSPYNYLEGLNPEYDYEFGVIACGIGYNYVKEADTDSCHIPVLKVSQYPLPAEEIRTMADRCGYVLVVEDGQPFVEEQVKAILSSDYEVKGRLTETLPRTGELTPDNVGEAIGWGIKRPFGKSQVVMPRPPALCQGCGHRDVYDALNKVAAEYPDARIFGDIGCYTLGALPPFRAIDSCVDMGASITMAKGASDAGVFPAIAVIGDSTFTHSGMTGLLDAVNDRANITVVISDNLTTAMTGGQDSAGTNKFEAICLGLGVEPEHVRVVVPLPKNMEEITRTIREEIEY | not soluble
6 | GSLSRLSYKSNNNSFVLGIGISVPGEPISQQSLKDSISNDFSDKAETNEKVKRIFEQSQIKTRHLVRDYTKPENSIKFRHLETITDVNNQFKKVVPDLAQQACLRALKDWGGDKGDITHIVSVTSTGIIIPDVNFKLIDLLGLNKDVERVSLNLMGCLAGLSSLRTAASLAKASPRNRILVVCTEVCSLHFSNTDGGDQMVASSIFADGSAAYIIGCNPRIEETPLYEVMCSINRSFPNTENAMVWDLEKEGWNLGLDASIPIVIGSGIEAFVDTLLDKAKLQTSTAISAKDCEFLIHTGGKSILMNIENSLGIDPKQTKNTWDVYHAYGNMSSASVIFVMDHARKSKSLPTYSISLAFGPGLAFEGCFLKNVV | soluble
7 | MGSDKIHHHHHHMSATSLYRLFAPQIEFLSPAEKQVFFYIDNHISTIEKMSLTSLAESTNVSTTTVIRMCHKLKLSGFSELKFLLHSDKTETKPLSKDYSSTFLEKIRLGIEQLPKKEIEQVATRIAYAPKIYIACLGMTKTLGEYFSKSLVTSKKNVVFTYDSFIIDILPQIVERDDLIIIISESGGTENTLSLAEHLKYNLSNVIAIVNNPNAQISQYVETIIYASSEEFDEDSFKHHHAPLLIVIDLILNIFEQQKKLI | not soluble
8 | MSLTQSHHDHVEKQFSSQASEYLTSTVHASGRDLQRLAVRLADYPDASVLDMGCGAGHASFVAAQNVSTVVAYDLSAHMLDVVAQAAEARQLKNITTRQGYVESLPFADNAFDIVISRYSAHHWHDVGAALREVNRILKLGGKLIVMDVMSPGHPVRDIWLQTVEALRDISHTRNYASGEWLTLISEANLIVDNLITDKLPLEFSSWVARMRTPEALVDAIRIYQQSASTEVKTYFALQNEGHHHHHH | not soluble
9 | ALTVRKHYTKEQARVTVVNKYPTHQIITELHRLAAGNVSEKAVAMPLEKLFKGKDIDLKIAEVSSFSVDKKEVALADGSTLTYDALVVGLGSVTAYFGIPGLEENSMVLKSAADANKVFQHVEDRVREYSKTKNEADATILIGGGGLTGVELVGELADIMPNLAKKYGVDHKEIKLKLVEAGPKILPVLPDDLIERATASLEKRGVEFLTGLPVTNVEGNVIDLKDGSKVVANTFVWTGGVQGNPLVGESGLEVNRGRATVNDFLQSTSHEDVFVAGDSAVYFGPDGRPYPPTAQIAWQMGELIGYNLFAYLEGKTLETFKPVNSGTLASLGRKDAVAIIGANSTPLKGLPASLMKEASNVRYLTHIK | not soluble
10 | MSLDLHNDLKSYLSELNTYSHVDKNEIYHSQRAGYMTGGGISIRNGASHTALAQVSLPKFDAGCGGIDIFTGGISFISHDQLIAALKNIASSAQGYAFMLGIETVSPLIASTMKQMETWANAINSLGINSCEVATGLVGSVWPARTAAKQQICRSAKNGGFASSFINARHQCADEGDYAKTMQSMAKDPLYDGMLLEEYNLTWKAVQKHPFLAKKENRKMAEEIMSLTGTLIIRRDKSLVVEPWPSRIYDDSFLPILLEGGTTRVYQCTGGNAKQNCLALEMKELTIPAEQAWKGRIKQALATIQQKILADTPLASEEIDLLSKSRLPLFKIVNVLTAYKREVSPISLYEVAEIVGNEMLIQYLREIIGTVRLAAIQLERGQMYDFDSQKFIEELERVEKVVSRYEERHYQRLEAENQLMLKIETLEQKIASQIILFEGHHHHHH | not soluble
11 | MAHHHHHHMGSLVMGRCRRGAEETFEFREEYALLDAPIANAEHIPLRLRPQERKIQRLMRGVILASSYTDKVDSASALKLKNRELLVVKELTNALTGLIVGLDMRKAASFMRDHEFTPYQHEIRAAIEMCRRYKMMNPDLLRTDYVKFLYMIQDAVQSDMAREALGFNVVKELVTVGRYCETHNMQDILQDTRLPHCITPVPVMKDRNMLNRCLRGKDAVVGKLVKQYASEHRMHEDNVEVVVRSLNDANCFSNDNVETSERLLELLKQYFTPISCTELTSLAIDEGADGSRLTHNHKMQYIFVLQSLSLWKNMCRKMYMLWSLAEEDMLNPNEKYELRMTGQGLQRVQKAPQLFKAIQQVLQETKEELGEWVGSERIHLGDDQVPNAFHFIDKYGQVSRIIIPILRTLGHIDQLERHADHAAYLREVWGGGEQAKRAILRDFFRHGFDGSGGDNMDDAGSCIDGRLTSAWNWCNNIRFKEFYPLFLFSGFSSFDGDMGL | soluble
12 | MGSDKIHHHHHHMGKTIAIMQPYFLPYIGYWQLMKASDIFVVYDNIKYTKKGWVNRNRYLSNGKIKLFSIPLMKASNSLQIKDRYLAETYKLESAKTLRKIKDAYAVSKNFHPCFNLIERCFNANENNLFEFIYNSVAIFKDVLGLRAQLVVSSSIACDHSLNSAERVKAICTELGAESYINPVGGEHLYERDDFQKLGINLRFLKPRIEEYPQLSCQFQPYMSILDICMSCTFDEVKNNII | not soluble
13 | MAGVSTTQSGAIGVDRTQYMSSLVPEQALVQEAGQQYAEIVQEARAKGLLDRDPAQLSRVRAISQRLIAQTGVFRADAANWPWEVHVLSVDEVNAWCMPGGKIAVYTGLLAHIKPTDDELAAVLGHEIAHALREHARERVSQQMATSIGLSVLSMATGSPGASDLGGKLTEVMFTLPNSRTHETEADRMGVELAARAGFDPRAAVTLWQKMGAADGNAPPEFLSTHPSASTRIGELQQALQKVLPLYEQARGQAAKLEHHHHHH | not soluble
14 | MIMNHMPKKIVIIGAGAGGGISLSQLRRALSNEDVEITIIDQTGRTDFQPSYVFLALGEKKPEEISRDISQLNDSRVRAVKDTVISVDAANRVVKTSGGSYQYDYLIMSPGPSIDPSSLKGHEATHSVWTMEDSLRLRDAVKNFKGGNVLISVSTQWYKCPPVPWEMALLLDDYFRRKNIRDKVKITVAHPVSRPMEMYGPGLSEPFSKMLDDRNIEGIYGRRVSSVDAEKKRAIMDNGETVGFDLSIVAPPHLPPDFIKNNDDLRSPRGWAATNIRDFRNPKYEDVFAIGDVIAPTIQIGMAGVLAHFQADTVSSAIAEEIAGYPFMEYNKVAVCIIATGGSGVFSYCDLAGKLTDPKVKFPECRMIGNDPLFRFAHDLYEVNFLSSIYGSRLEHHHHHH | not soluble
15 | MEIGPDGKPCRACVSVEDMMKKGREMAEKIKKKESETTPSTSTGAKLHGCPVDKDELGRSTWNLLHTMSVYYPEKPTDEDKDRARSFMSILGKTYPCDFCAKDLRKDLKESPPKVESREAFALWMCQLHNKVNEKTGKPKFECRDVMQRWRDGWKDGSCDY | soluble
16 | MCVGVPMTVVTSDNGTALCERRGEQRRVSTLLIGEVAVGDRVLVFIDNAMRLLEPDEARLIDDALDGLAAAMQGRDFEHLFADLIDREPQLPAFLRNDVVPPHG | not soluble
17 | SAAATEHNRPSSGDRNLERRCSPNLSREVLYEIFRSLHTLVGQLDLRDDVVKITIDWNKLQSLSAFQPALLFSALEQHILYLQPFLAKLQSPIKEENTTAVEEIGRTEMGNKNEVNDKFSIGDLQEEEKHKESDLRDVKKTQIHFDPEVVQIKAGKAEIDRRISAFIERKQAEINENNVREFCNVIDCNQENSCARTDAIFTPYPGFKSHVKVSRVVYTYGPQTRPEGIPGSGHKPNSMLRDCGNQAVEERLQNIEAHLRLQTGGPVPRDIYQRIKKLEDKILELEGISPEYFQSVSFSGKRRKVQPPQQNYSLAELDEKISALKQALLRKSREAESMATHHLP | not soluble
18 | MGSDKIHHHHHHMIELCEVTKTYPIYHGHAQRTILDRINLRVGKGQKWGILGRNGAGKSTLIRLISGAERPNTGNIVRNMTVSWPLAFGGAFQGSLTGRDNTRLICRAYGVDFDKTITMVENFAELGSYLWEPVKSYSSGMSARLAFAISISVEFDCFLIDEALAVGDHRFLQKCNVELFENRGDRAMIIVSHQTNIIRTHCDHAAVLENGHLTVHESVDSAIAAYEAL | not soluble
19 | MGSDKIHHHHHHMRETIREIQKVAYWLAIKGLSEANAGNISVRLDERPEGYEVKSVNEYGFDYDGPEMYLLITATGSRMREVYEDDSKICLLHVLPGKHYEILHGNGKPTSEFPTHLMIHAKFKEMNPEKKAIVHTHPLNLLTLMNLEEFQELLPKMMKIHPEVLIFFPQGISVVEFEKPGSVELGLKTVEKSEGKDAVLWDKHGVVAFGKDVAEAYDRVEILEKAAEILLRVLSLGRNPTGVPEGWL | not soluble
